Laboratory results: US20140341888A1

Biological target: EGFR-AP fusion protein (UniProt P00533)
Assay: SPR (BIAcore), EGFR-AP immobilized, antibody 1.5 nM to 100 nM

Sequence of IMC-11F8 Fab (VH): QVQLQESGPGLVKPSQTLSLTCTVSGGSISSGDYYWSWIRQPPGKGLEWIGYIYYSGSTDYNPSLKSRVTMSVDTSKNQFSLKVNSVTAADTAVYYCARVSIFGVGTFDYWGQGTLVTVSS
Sequence of IMC-11F8 Fab (VL): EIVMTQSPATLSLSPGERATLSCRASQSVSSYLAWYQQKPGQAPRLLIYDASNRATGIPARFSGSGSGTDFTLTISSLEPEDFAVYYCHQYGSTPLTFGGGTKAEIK

Kd: 1.78 nM
koff: 0.00367 s⁻¹
kon: 2.29e+06 M⁻¹ s⁻¹
Substance: IMC-11F8 Fab
